Where two headings read alike, the source gives them in different places.
Key:
[1] = Biological activity of hepcidin variants; settings: chemically synthesized hepcidin variants
Description: A number of hepcidin variants were chemically synthesized according to the general procedure described in Example 4. A variant of hepcidin lacking the five amino acids at the N-terminus, designated “hepcidin 20” or “hepc20,” was synthesized. A linear hepcidin variant in which all eight cysteine residues were replaced with 2-aminobutyric acid, thus completely abolishing the ability to form disulfide bonds, was also synthesized. A C1-C8, C3-C6 hepcidin variant, in which cysteines 2, 4, 5 and 7 were substituted with 2-aminobutyric acid to allow formation of only two disulfide bonds (C1-C8 and C3-C6), was also synthesized.
Similar results were produced using hepcidin containing its native cysteine residues, when the molecule was in a fully-reduced state (i.e., no disulfide connectivity). This reduced material was not stable, however, and regained biological activity over time.

[2] = molecular target: T1, mature human hepcidin (SEQ ID NO: 9) (Homo sapiens, UniProt P81172); test: Epitope specificity: antibody binding to immobilized hepcidin surface after pre-complex with hepcidin variants (BIAcore); settings: interpretation of Table 6
T1 construct: made in house; host or cells: recombinant
T1 sequence (P81172 60-84): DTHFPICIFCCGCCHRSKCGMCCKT
Method: (§1) The epitope specificity of anti-human hepcidin antibodies was evaluated by assessing ability of the antibodies to bind to mature human hepcidin (SEQ ID NO: 9) after pre-complex formation with different hepcidin variants.
(§2) Recombinant hepcidin was immobilized on a CM5 chip according to manufacturer's instructions at a flow rate 10 μL/min of running buffer (DPBS: Dulbecco's Phosphate Buffer Saline1X, GIBCO 14190, with 0.005% BIAcore surfactant P-20). The carboxylated matrix of the sensor chip was first activated with a 100 μL injection of 1:1 mixture of EDC (75 mg/mL N-ethyl-N-(dimethylamine-propyl)carbodiimide in water, from Biacore) and NHS (11.5 mg/mL N-hydroxysuccinimide in water, from Biacore). 180 μL of rhHepc (˜20 μg/ml in 10 mM Na-acetate pH4.0) was injected to immobilize onto the sensor chip at 30 μL/min. The excess reactive groups of the sensor chip were deactivated with an injection of 100 μL of ethanolamine (1.0M, from Biacore).
(§3) Forms of hepcidin used for the pre-complex were: correctly folded hepcidin as a positive control, the C1-C8, C3-C6 hepcidin variant (see Example 9), hepcidin 20 (N-terminally truncated, see Example 9) and linear hepcidin (Example 9). 1 nM solutions of antibody (2.41, 2.7, 43, and R9) were preincubated with 10 nM of each antigen at room temperature for several hours before run through the immobilized hepcidin surface. The binding signal obtained was proportional to the concentration of free antibody in solution at equilibrium.
(§4) Some antibodies require the five amino acids at the N-terminus of the molecule (e.g. Ab43 and to a lesser extent, R9).

[3] = system: mature human hepcidin (SEQ ID NO: 9); test: as above; settings: interpretation of Table 6
Method: as §1, §2, §3, §4

[4] = molecular target: T2, synthetic human hepcidin (Homo sapiens, UniProt P81172); test: Iron-responsive beta-lactamase assay in 293/Fpn/BLA cells; type: cell-based; settings: 50 ng/mL synthetic human hepcidin, 2.5 ug/mL ferric citrate, read-out: EC50, decreased intracellular concentration of iron
T2 construct: made in house; host or cells: chemical synthesis (Fmoc solid phase), oxidatively folded
T2 sequence (P81172 60-84 limits assumed): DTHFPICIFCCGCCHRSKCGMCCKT
Method: The effect of anti-human hepcidin antibodies on this hepcidin-mediated iron sequestration was evaluated in vitro. […] These 293/Fpn/BLA cells, taken from a 70-80% confluent culture, were plated at 2.8×10^5 cells/mL in DMEM (Invitrogen Cat#11965) 5% FBS (Invitrogen Cat#10099-141) PSQ (Invitrogen Cat#10378-016), 90 uL/well (25,000 cells/well) in BioCoat Poly-D Lysine coated plates (Becton-Dickinson Cat#35-6640) and incubated at 37C with 5% CO2. At the end of the same day, a solution of assay medium (DMEM 5% FBS PSQ) with 100 ug/mL doxycycline was made, 10 uL/well of it added to the plate, and the plate incubated overnight or for at least 20 hours. […] Mixtures were added at 100 uL/well and incubated overnight at 37C, 5% CO2 in a cell culture incubator. Plates were then removed from the incubator and equilibrated to room temperature for 10 minutes before adding 20 uL/well of the prepared Invitrogen GeneBlazer CCF4 A/M development reagent (Invitrogen Kit# K1085) and incubating for 90 minutes in the dark. Development reagent was also added to 16 wells of a control assay plate without cells containing 100 uL assay medium (DMEM 5% FBS PSQ) and incubated for the same time. Blue & Green fluorescence signals were then read on an Envision Multilabel Reader (Perkin-Elmer Inc.) by exciting at 409 nm and reading emissions at 447 nm (blue) and 520 nm (green).

[5] = molecular target: T3, human hepcidin (Homo sapiens, UniProt P81172); test: Neutralization of injected human hepcidin in mice (hypoferremic response); type: in vivo; settings: female C57BL/6 mice; for protection from the hypoferremic response (serum iron): serum iron two hours later
T3 construct: The pro-region of the protein was enzymatically cleaved by incubation with Kex protease; made in house; host or cells: E. coli
T3 sequence (P81172 60-84 limits assumed): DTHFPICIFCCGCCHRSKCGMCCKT
Method: Activity of anti-human hepcidin antibodies was evaluated in vivo in mice that were administered human hepcidin in an amount sufficient to generate a hypoferremic response. On day 0, female C57BL/6 mice were injected subcutaneously with a murine monoclonal antibody (Ab2.7) directed against human hepcidin. Control mice received murine IgG1 as an isotypic control. At day 3, the mice received a single intraperitoneal injection of 25 μg E. coli-derived recombinant human Hepcidin (rhHepc). Serum iron levels were analyzed two hours later. […] Statistics represent ANOVA with a Dunnett's post-hoc test comparing all groups against the saline control.

[6] = molecular target: T4, human hepcidin (Homo sapiens, UniProt P81172); test: Antibody neutralization of AAV-delivered human hepcidin in mice; type: in vivo; settings: 1 mg/mouse
Method: AAV-mediated human hepcidin expression in mice produces a microcytic, hypochromic anemia consistent with iron deprivation. The activity of anti-human hepcidin antibodies was evaluated in vivo in these mice overexpressing human hepcidin. Male C57B1/6 mice were injected with AAV (1.5×10^12 particles/mouse, I.V.) containing expression cassettes for either human hepcidin or beta-galactosidase (β-gal) as a negative control. The mice were left for two weeks to allow constitutive production of huHepc before being treated with 1 mg/mouse of Ab 2.7 or isotype control (muIgG1) at various dosing frequencies (1×, 2× and 4× per week) as shown in FIG. 12A. Blood was drawn on the fifth day for serum iron levels and determination of early red blood cell (reticulocyte) characteristics (reticulocyte count, reticulocyte hemoglobin content (CHr), and reticulocyte mean cell volume (Retic. MCV))
Statistical comparisons to β-gal injected animals with isotype control treatment were determined to look for restoration of normal red cell characteristics (ANOVA with Dunnett's post-hoc test).

[7] = molecular target: T4, human hepcidin; test: Combination of anti-hepcidin antibody and darbepoetin alfa in viral hepcidin over-expression model; type: in vivo; settings: AAV-human hepcidin mice
Method: Male C57BL/6 mice were injected with AAV (5×10^12 particles/mouse, I.V.) containing genes coding for either human hepcidin or GFP as an expression control (n=5 per group). After allowing two weeks to establish constitutive protein expression, mice were bled to determine baseline hemoglobin (Hb) levels, then treated with Ab 2.7 (1 mg/mouse) or isotype control at various dose frequencies. On the day after the first dose, they were treated with darbepoietin alfa ([…], subcutaneous). A schematic of the dosing schedule appears in FIG. 15A.
Neutralization of hepcidin restores responsiveness to darbepoetin alfa. […] (See FIG. 15D.) Antibody dose and proximity of antibody dose to darbepoietin alfa treatment affected overall Hb response to anti-hepcidin antibody treatment, as shown in FIG. 15E (results varying from the control where p<0.01 by ANOVA with Dunnett's post-hoc test are noted with double asterisks).

[8] = molecular target: T4, human hepcidin; settings: in vivo
[9] = molecular target: T5, E. coli-derived human hepcidin (Homo sapiens, UniProt P81172); test: Biacore concurrent binding to hepcidin captured on antibody 1S1 surface (sandwich pairing); settings: 20 nM hepcidin on 1S1 surface, then 50 nM antibody
T5 construct: The pro-region of the protein was enzymatically cleaved by incubation with Kex protease; made in house; host or cells: E. coli
T5 sequence (P81172 60-84 limits assumed): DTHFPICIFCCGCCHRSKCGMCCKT
Method: Using Biacore analysis, a surface coated with antibody 1S1 was tested for the concurrent binding of hepcidin and another antibody (FIG. 28). Immobilization of anti-Hepc antibody 1S1 to the sensor chip surface was performed according to manufacturer's instructions using a continuous flow of 0.005% P-20/PBS buffer. Briefly, carboxyl groups on the sensor chip surfaces were activated by injecting 60 μL of a mixture containing 0.2 M N-ethyl-N′-(dimethylaminopropyl)carbodiimide (EDC) and 0.05 M N-hydroxysuccinimide (NHS). This was followed by injecting 1S1 diluted in 10 mM acetate, pH 4.0 at concentrations between 20 μg/mL. Excess reactive groups on the surfaces were deactivated by injecting 60 μL of 1 M ethanolamine. Final immobilized levels were 5,000-6,000 resonance units (RU) for the Ab 1S1 surface. A blank, mock-coupled reference surface was also prepared on the sensor chip. 20 nM E. coli-derived human hepcidin was injected over and bound to the 1S1 antibody surface. Then 50 nM antibody 2.7, 23F11, 26F11, and 1S1 were injected over the hepcidin/1S1 surface. After the antibody injection, the surfaces were regenerated by injecting 30 μL 10 mM HCl pH 2.0.

Molecule: hepc20: variant of hepcidin lacking the five amino acids at the N-terminus (SEQ ID NO: 96) (ICIFCCGCCHRSKCGMCCKT)
- biological activity [1]: severely diminished biological activity

B1: Antibody 2.7: murine human hepcidin-specific monoclonal antibody raised against KLH-conjugated hepcidin; CDRs SEQ ID NOs: 28-33 (antibody, V domains shown)
VH: QIQLVQSGPELKKPGETVKISCKASGYTFTTYGMSWVKQAPGKGLKWMGWINTYSGVPTYADDFKGRFAFSLETSASTAYLQINNLKNEDTATYFCGRDHYYGEVAYWGQGTLVTVSA
VL: DIVLTQSPASLAVSLGQRATISCRASESVDSYGNSFMHWYQQKPGQPPKLLIYRASNLESGIPARFSGSGSRTDFTLTINPVEADDVATYYCHQSNEEYTFGGGTKLEIK
- Binding to Solution Epitopes, Folded Hepcidin [2]: ++++ (0% antibody binding to the hepcidin surface and therefore 100% inhibition by hepcidin in solution)
- Binding to Solution Epitopes, C1-C8 C3-C6 [3]: ++++ (0% antibody binding to the hepcidin surface and therefore 100% inhibition by hepcidin in solution)
- Binding to Solution Epitopes, Linear Hepcidin [3]: − (100% antibody binding to the hepcidin surface and therefore no inhibition by hepcidin in solution)
- EC50 [4]: 17 nM
- hypoferremia (serum iron) ([5]; 0.25 mg antibody s.c. day 0, 25 μg rhHepc i.p. day 3): reduction in hypoferremia
- protection from the hypoferremic response (serum iron) ([5]; 0.5 mg antibody s.c. day 0, 25 μg rhHepc i.p. day 3): statistically significant protection from the hypoferremic response
- protection from the hypoferremic response (serum iron) ([5]; 1 mg antibody s.c. day 0, 25 μg rhHepc i.p. day 3): statistically significant protection from the hypoferremic response
- neutralization of hypoferremic response ([5]; lower doses (0.25 and 0.1 mg) of antibody): non-neutralizing doses
- Serum iron levels ([6]; AAV-human hepcidin male C57B1/6 mice, 4× per week): restored to normal
- reticulocyte mean cell volume (Retic. MCV) ([6]; AAV-human hepcidin mice, 1× dose): microcytosis is still present
- reticulocyte hemoglobin content (CHr) ([6]; AAV-human hepcidin mice, 1× dosing): hypochromicity is still seen
- reticulocyte mean cell volume (Retic. MCV) ([6]; AAV-human hepcidin mice, 2× dose): restores normal volume
- reticulocyte hemoglobin content (CHr) ([6]; AAV-human hepcidin mice, 2× dosing): normal
- reticulocyte mean cell volume (Retic. MCV) ([6]; AAV-human hepcidin mice, 4× dose): restores normal volume
- reticulocyte hemoglobin content (CHr) ([6]; AAV-human hepcidin mice, 4× dosing): normal
- reticulocyte production (reticulocyte count) ([6]; AAV-human hepcidin mice, all dosing frequencies (1×, 2×, 4× per week)): increased reticulocyte production
- response to darbepoietin alfa (increase in Hb levels) ([7]; antibody 1 mg/mouse Monday-Wednesday-Friday dosing plus darbepoietin alfa): partial response
- response to darbepoietin alfa (Hb levels) ([7]; antibody 1 mg/mouse daily (Monday through Friday) plus darbepoietin alfa): maximal response
- Hb levels ([7]; antibody Monday-Wednesday-Friday dosing without darbepoietin alfa): no rise in Hb levels
- response to darbepoietin alfa (Hb levels) ([7]; two and three doses of antibody plus darbepoietin alfa): partial response
- response to darbepoietin alfa (Hb levels) [8]: did not respond
- responsiveness to darbepoietin alfa (hemoglobin levels) [8]: restored responsiveness
- ability to bind hepcidin concurrently with 1S1 (sandwich pair) [9]: not able to form a sandwich pair with 1S1

— patent publication US20130018176A1, “METHODS OF PRODUCING HYBRIDOMAS AND MONOCLONAL ANTIBODIES AND ANTIBODIES PRODUCED THEREBY” (AMGEN INC., priority 2007, published 2013)
